Here are results for 3 proteins from PMC6508825, “Rice plants have three homologs of glutathione synthetase genes, one of which, OsGS2, codes for hydroxymethyl‐glutathione synthetase” (Plant Direct, 2019).

What all share (settings): 1 mmol/L gamma-glutamylcysteine, 2 mmol/L ATP, 20 mmol/L MgCl2, 50 mmol/L KCl, 1 mmol/L DTT, Tris-HCl pH 8.0, 30 °C, apparent, 0.2-10 mmol/L amino acid
Substrate in series [1]: NCC(=O)O
Put plainly: HPLC with fluorescence detection of monobromobimane-derivatized thiol peptide product, Michaelis-Menten fit. It is filed as biochemical, Oryza sativa. The source says: HPLC with fluorescence detection of monobromobimane-derivatized thiol peptide product, Michaelis-Menten fit on MBP-OsGS2

Substrate in the series “purified protein”: N[C@@H](CO)C(=O)O
As to the kind of experiment: purified protein.

Substrate in series [2]: NCC(=O)O
As to the kind of experiment: HPLC with fluorescence detection of monobromobimane-derivatized thiol peptide product, Michaelis-Menten fit. It counts as biochemical, Oryza sativa. The source says: HPLC with fluorescence detection of monobromobimane-derivatized thiol peptide product, Michaelis-Menten fit on MBP-OsGS1
The source holds these as a separate data set.

Substrate in series [3]: NCC(=O)O
The description is as above. It is filed as biochemical, Oryza sativa. The source says: HPLC with fluorescence detection of monobromobimane-derivatized thiol peptide product, Michaelis-Menten fit on MBP-OsGS3
The source holds these as a separate data set.

In general, Km refers to the concentration of substrate that gives half-maximal velocity. In general, Vmax refers to the top rate of the reaction or transport when substrate is in excess.

B1: MBP-OsGS2 (Oryza sativa Japonica Group) (protein)
chain: MAAAAARSGAHPPSFASSLGRCRVLPVVVVRRPGGAARPSPLLAPARCAAAVGTAAPKVEGGGRRSSEQGQLAVAPARLVDELVEEALVWSSQHGLVVGDKNHPRSGKAPGVGLLHAPFALLPMSFSKVYWDQAVELAPLFNELVDRVSLDGDFLQETLARTKEVDSFTGRLLDIHAKMMKLNKKEDVRLGLTRSDYMIDGATDQLLQVELNTISTSSNGLACGVCELHRNLIRQHERELGLDPESVVGNTAIAQHAEALAGAWAEFNNQSSVVLVVVQPEERYMYDQYWITVALREMYGVTTIRKTMAAIDAEGELRPDGTLTIDGLPVAVVYFRAGYTPNDYPSEAEWRARLLIECSSAIKCPSIAHHLVGTKKIQQELAKENVLERFLDNKADIEKVRKCFAGLWSLENDSIVMSAIESPELFVLKPQREGGGNNIYGDNLRETLISLKKDGSNELAAYILMQRIFPPASLCYLVRDGTCIRENAVSEFGIFGAYLRNKDRVIINDQCGYLMRTKAASLNEGGVVAGYAFLNSVFLT
notes: full-length ORF, MBP fusion (pMAL-c5X), expressed in E. coli NEB Express, amylose resin purified; MBP kept
On to B1, for which the Michaelis-Menten constant (Km) in series [1] is listed as 19.3 ± 1.1 mmol/L; in “purified protein”, 2.64 ± 0.05 mmol/L. Further, the Vmax in series [1] was determined as 0.459 µmol/min/mg; in the series “purified protein” it was 0.524 µmol/min/mg.

B2: MBP-OsGS1 (Oryza sativa Japonica Group) (protein)
chain: MSSYVTTPHHHHHHGCCSGSRRLQAPAPPARPRLVVAAAARHVALPPRRAVASRAMSAEAPLGVAPAAAEEEMAAVVDEMAEEAAVWCAVHGLVVGDRAEPRSGTIPGVGLVHAPFALLPTRFPASFWKQARELAPIFNDLVDRVSLDGEFLQDSLSRTRQVDDFTSRLLDIHAKMMEVNKEEDIRLGLHRSDYMLDSGTNSLLQIELNTISSSFPGLSSLVSELHRTLLNRHGKVLGLDSKRIPQNWAATQFAEALSMAWTEFNNKSAVIMMVVQPEERNMYDQYWLINHLKESHGVKTIRKTLAQVEAEGQVLPDGTLVVDGQTVSVVYFRAGYSPNDYPSEAEWRARLLMEQSSAIKCPSISYHLVGTKKIQQELAKPNILERFLNNKEDIAKLRKCFAGLWSLDNEEIVKTAIEKPDLFVLKPQREGGGNNIYGYDLRETLVRLQKEQGEALAAYILMQRIFPRASLTHLVQGGVCFEDLTISELGIFGAYLRNKDKVVLNNQCGYLMRTKVSSSNEGGVAAGFAVLDSILLTDEW
notes: as for B1
For B2, in series [2], the Km was determined as 1.28 ± 0.10 mmol/L and the Vmax worked out at 0.759 µmol/min/mg.

B3: MBP-OsGS3 (Oryza sativa Japonica Group) (protein)
chain: MSAAAEGRPPAAAAAGEMVREATAWCALHGLVVGDRADPRSGTVPGVGLVHAPFSLLPTHLPESHWRQACELAPIFNELVDRVSLDGDFLQDSLSKTKQVDDFTSRLLEIHRKMMEINKEENIRLGLHRSDYMLDSETNSLLQIELNTISASFPGLGSLVSELHRTLIDQYGHLFCLDSKRVPGNEASSQFAKALARAWDEFNVDSAVIMMIVQPEERNMYDQYWLAKHLKESHGITTIRKTLSEVEAEGHVLPDGTLVIDGKTVSVVYFRAGYTPNDYPSEAEWAARLLLEQSSAVKCPSISYHLVGTKKIQQELARPNVLERFLENKEEITKIRKCFAGLWSLDDEEIVKSAIQKPELFVLKPQREGGGNNIYGIDVRETLIRLQKEGGDALAAYILMQRIFPKASLSNLVRGGVCHEALTISELGIYGAYLRNNDKVVMNEQSGYLMRTKVSSSDEGGVAAGFAVLDSLYLTDKAM
notes: MBP kept
As for B3, in series [3], the Michaelis-Menten constant (Km) is recorded as 0.408 ± 0.005 mmol/L and the maximum rate (Vmax) amounted to 6.6 µmol/min/mg.
